# Test results from patent US20200237928A1 (UNIVERSITY OF MIAMI, published 2020).
# Side-chain parts run from the residue outwards. [ ]: non-standard residue; d: D form. Abu = CC[C@H](N)C(=O)O; Ahx = NCCCCCC(=O)O
# T1: recombinant mouse IL4Rα extracellular domain (Ile26-Arg233), cleaved by factor Xa from the IL4Rα/human IgG1 … (mouse, UniProt P16382 26-233)
# T1 construct: range 26-233; Factor Xa cleavage in the IEGRMD spacer may leave some spacer residues at the C-terminus; Covalently linked to M-450 epoxy beads; also called recombinant IL4Rα; IL4Rα conjugated epoxybeads
# T1 sequence (looked up): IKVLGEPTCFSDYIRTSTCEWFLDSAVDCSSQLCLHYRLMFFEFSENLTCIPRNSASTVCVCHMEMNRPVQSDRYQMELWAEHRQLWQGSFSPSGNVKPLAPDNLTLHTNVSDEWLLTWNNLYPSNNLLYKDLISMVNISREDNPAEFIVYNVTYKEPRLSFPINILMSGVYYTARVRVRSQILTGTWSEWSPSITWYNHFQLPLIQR
# What was measured:
# [1] = target: T1, recombinant mouse IL4Rα extracellular …; assay: FACS on IL4Rα-conjugated epoxybeads; 4PD against the FITC-peptide
# Method: (§1) Epoxybeads were conjugated with recombinant IL4Rα and used as binding target of 4PD or of the targeting peptide. Briefly, the recombinant chimeric IL4Rα protein composed by the mouse IL4Rα (Ile26 Arg233) and the human IgG1 (Pro100 Lys330) linked by the IEGRMD spacer polypeptide and generated in the NSO myeloma cell line was purchased by R&D systems (Minneapolis, Minn., USA). The protein was treated for 24 hours with 1.5% w/w factor Xa (SIGMA. St. Louis, Mo., USA) in tris-HCl (20 mM) and NaCl (200 mM) to cleave the IL4Rα extracellular domain. Factor Xa was removed by the solution using the Factor Xa removal resin (QIAGEN, Valencia, Calif., USA) and following the manufacturer instruction. IgG-linker fraction was removed from the solution by using protein-A conjugated magnetic beads (Invitrogen, Carlsbad, Calif., USA). The purity obtained by this procedure assessed by SDS PAGE was higher than 95% with only trace of IgG (data not shown). The obtained IL4Rα fraction was linked to epoxy magnetic beads M-450 by an overnight (ON) incubation at room temperature (RT) of 20×10⁶ beads with 10 μg of protein in a final volume of 1 mL in a sodium phosphate buffer (pH:8.0). […] Correct conjugation was evaluated via FACs after labeling with an anti-IL4Rα antibody.
# (§2) Next, the binding of the 4PD to the IL4Rα was evaluated. […] Beads were washed twice with PBS and the binding evaluated by FACS.
# [2] = target: T1, recombinant mouse IL4Rα extracellular …; assay: FACS; Alexa555-shRNA/4PD complexes titrated on IL4Rα-conjugated epoxybeads, 10 min at RT; apparent Kd; peptide conjugated to the dendrimer (4PD)
# Method: as §1, §2
binder,measurement,setting,value
"Ac-LQRLFRAFR[Abu]LD[Ahx]C([m‑maleimidobenzoyl-G5 PAMAM dendrimer])-NH2 (other, also: several peptide copies on one G5 PAMAM dendrimer, complexed with Alexa555-labelled shRNA, Not a plain protein: several copies of the peptide sit on a G5 PAMAM dendrimer (28,826 Da), complexed electrostatically with Alexa555-labelled scrambled shRNA; also called Alexa555-shRNA/4PD complexes; 4PD/Alexa555 complexes)",fold increase of apparent Kd (avidity) against the free peptide,[1],~1000 times
same,Kd,[2],3000 nM
